Test results: patent publication US6583108B1, “Human bikunin” (Bayer Corporation, dated 2003)
Like-named read-outs stand apart in the source and are kept apart here.

Key:
bovine trypsin (bovine) [1] = molecular target: bovine trypsin (bovine) (UniProt P00760)
Factor XIa [2] = experiment: enzyme inhibition kinetics, E(OBz)AR-AMC substrate
Factor XIa [3] = experiment: enzyme inhibition kinetics
bovine trypsin (bovine) [4] = molecular target: bovine trypsin (bovine) (UniProt P00760); remark: listed apart in the source
Factor XIIa = experiment: enzyme inhibition kinetics; first preparation of bikunin (7-64)
[5] = molecular target: human neutrophil elastase (human, UniProt P08246); experiment: as above
bovine trypsin (bovine) [6] = molecular target: bovine trypsin (bovine) (UniProt P00760); remark: listed apart in the source
[7] = molecular target: bovine pancreatic kallikrein (bovine); experiment: enzyme inhibition kinetics; first preparation of bikunin (7-64)
bovine trypsin (bovine) [8] = molecular target: bovine trypsin (bovine) (UniProt P00760); remark: listed apart in the source
[9] = molecular target: bovine pancreatic kallikrein (bovine); experiment: enzyme inhibition kinetics; Sf9-derived bikunin (1-170)
Factor XIa [10] = experiment: as above
Tissue Factor VIIa = experiment: as above
bovine trypsin (bovine) [11] = molecular target: bovine trypsin (bovine) (UniProt P00760); remark: listed apart in the source

Sequence of bovine trypsin (bovine) (P00760 24-246): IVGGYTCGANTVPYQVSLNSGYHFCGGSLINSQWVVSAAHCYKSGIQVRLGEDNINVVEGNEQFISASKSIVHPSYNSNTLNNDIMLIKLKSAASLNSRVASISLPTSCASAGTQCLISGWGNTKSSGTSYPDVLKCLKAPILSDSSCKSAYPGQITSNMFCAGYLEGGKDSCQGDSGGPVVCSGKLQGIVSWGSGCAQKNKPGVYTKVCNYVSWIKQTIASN

“recombinant placental bikunin (102-159) expressed in yeast SC101 (construct #1)” showed an inhibition of trypsin by yeast culture supernatant (applysate) (bovine trypsin (bovine) [1]) of 82%.

synthetic placental bikunin (102-159) gave a Ki (Factor XIa [2]) of 15 nM, a Ki (Factor XIa [3]) of 15 nM and a trypsin inhibitory activity, specific activity (U/mg) of the purified refolded peptide (bovine trypsin (bovine) [4]) of 300000 U/mg.

With synthetic placental bikunin (7-64) the Ki (Factor XIIa) was over 300 nM.

B1: synthetic placental bikunin (7-64) (other)
chain: IHDFCLVSKVVGRCRASMPRWWYNVTDGSCQLFVYGGCDGNSNNYLTKEECLKKCATV
B1 gave a Ki [5] of over 100 nM, a trypsin inhibitory activity, specific activity (U/mg) of the purified refolded peptide (bovine trypsin (bovine) [6]) of 294000 U/mg and a Ki [7] of 0.4 nM.

B2: native human placental bikunin isolated from human placenta (protein)
chain: ADRERSIHDFCLVSKVVGRCRASMPRWWYNVTDGSCQLFVYGGCDGNSNNYLTKEECLKKCATVTENATGDLATSRNAADSSVPSAPRRQDSEDHSSDMFNYEEYCTANAVTGPCRASFPRWYFDVERNSCNNFIYGGCRGNKNSYRSEEACMLRCFRQQENPPLPLGSK
modifications: probably glycosylated at the asparagine residue at position 30
Work on B2 yielded a trypsin inhibitory activity (Units/OD 280) after Superdex 75 (bovine trypsin (bovine) [8]) of 24500 Units/OD 280.

B3: recombinant placental bikunin (1-170) from baculovirus/Sf9 expression (protein)
chain: ADRERSIHDFCLVSKVVGRCRASMPRWWYNVTDGSCQLFVYGGCDGNSNNYLTKEECLKKCATVTENATGDLATSRNAADSSVPSAPRRQDSEDHSSDMFNYEEYCTANAVTGPCRASFPRWYFDVERNSCNNFIYGGCRGNKNSYRSEEACMLRCFRQQENPPLPLGSK
modifications: probably glycosylated at the asparagine residue at position 30
For B3, the Ki [9] was 0.12 nM, the Ki (Factor XIa [10]) was 3 nM and the Ki (Tissue Factor VIIa) was 800 nM. For the same molecule, the trypsin inhibitory activity, specific activity (U/OD) after C18 reverse-phase (bovine trypsin (bovine) [11]) was 72200 U/OD.

B4: placental bikunin 98-159 expressed in yeast (construct #4) (protein)
chain: DMFNYEEYCTANAVTGPCRASFPRWYFDVERNSCNNFIYGGCRGNKNSYRSEEACMLRCFRQ
In the case of B4, the inhibition of trypsin by yeast culture supernatant (applysate) (bovine trypsin (bovine) [1]) is reported as 93%.

B5: placental bikunin 101-159 expressed in yeast (construct #3) (protein)
chain: NYEEYCTANAVTGPCRASFPRWYFDVERNSCNNFIYGGCRGNKNSYRSEEACMLRCFRQ
B5 showed an inhibition of trypsin by yeast culture supernatant (applysate) (bovine trypsin (bovine) [1]) of 25%.
